{
  "source": "patent US6645504B1",
  "about": "“Bystander suppression of type I diabetes by oral administration of glucagon” (AutoImmune Inc., priority 1987, dated 2003)",
  "key": {"OVA line": {"test_system": "OVA line", "experiment": "Transwell culture suppression of OVA T cell line", "assay_type": "cell-based, Lewis rats", "from_the_text": "Transwell Cultures. A dual chamber transwell culture system (Costar, Cambridge, Mass.), which is 24.5 mm in diameter and consists of two compartments separated by a semi-permeable polycarbonate membrane, with a pore size of 0.4 μm, was used. The two chambers are 1 mm apart, allowing cells to be coin-cubated in close proximity without direct cell-to-cell contact. To measure in vitro suppression of proliferative responses in transwell cultures, 5×10^4 MBP- or OVA-specific line cells, raised and maintained as previously described (Ben-Nun, A. et al., Eur. J. Immunol. 11:195, 1981), were cultured with 10^6 irradiated (2,500 rad) thymocytes, in 600 μl of proliferation media in the lower well. Spleen cells from orally tolerized rats or controls (fed BSA) were added to the upper well (5×10^5 cells in 200 μl). Spleen cells were removed 7-14 days after the last feeding, and a single cell suspension was prepared by pressing the spleens through a stainless steel mesh. MBP and OVA (50 μg/ml) were added in a volume of 20 μl. […] In some experiments, modulator cells were added in the lower well together with responder cells, and in these instances modulator cells were irradiated (1,250 rad) immediately before being placed in culture. Proliferation media consisted of RPMI 1640 (Gibco Laboratories, Grand Island, N.Y.) supplemented with […] 2-mercaptoethanol, 1% sodium pyruvate, 1% penicillin and streptomycin, 1% glutamine, 1% HEPES buffer, 1% nonessential amino acids, and 1% autologous serum. Each transwell was performed in quadruplicate. The transwells were incubated at 37° C. in a humidified 6% CO2 and 94% air atmosphere for 72 hours. After 54 hours of culture, each lower well was pulsed with 4 μCi of [^3H]thymidine and at 72 hours split and reseeded to three wells in a round-bottomed 96-well plate (Costar) for harvesting onto fiberglass filters and counting using standard liquid scintillation techniques. Percent suppression =100×(1−Δ A cpm responders cultured with modulators/Δ cpm of responders)."}, "EAE": {"test_system": "EAE", "experiment": "In vivo bystander suppression of EAE (MBP/CFA plus secondary antigen)", "parameters": "species or system Lewis rats", "conditions": "MBP fed before MBP/CFA immunization; FIG. 6B", "procedure": "Immunization Of Animals. Animals were immunized with 25 μg of MBP in the footpad, emulsified in an equal volume of CFA containing 4 mg/ml of Mycobacterium tuberculosis (Difco Labs, Detroit, Mich.) in order to induce a substantial EAE disease state. For in vivo bystander suppression experiments, 50-300 μg of the secondary antigens OVA, BSA or KLH were injected subcutaneously in the same footpad in 100 μl PBS 8 hours after primary immunization with MBP CFA.\nClinical Evaluation. Animals were evaluated in a blinded fashion every day for evidence of EAE in order to correlate the clinical manifestations of Bystander Suppression with the in vitro assays described below. Clinical severity of EAE was scored as follows: 0, no disease; 1, limp tail; 2, hind limb paralysis; 3, hind limb paraplegia, incontinence; 4, tetraplegia; 5, death. Mean maximal clinical severity was calculated as previously described for each experimental group (7). Statistical analysis was performed using a one-tailed student's t test and a chi square analysis for comparing incidence between groups.\nInduction Of Oral Tolerance. Animals were fed 1 mg MBP, OVA, BSA or KLH dissolved in 1 ml PBS or PBS alone, by gastric intubation using an 18-gauge stainless steel animal feeding needle (Thomas Scientific, Swedesboro, N.J.). Animals were fed five times (total dose of 5 mg), at intervals of 2-3 days with the last feeding 2 days before immunization."}, "DTH responses": {"test_system": "DTH responses", "experiment": "DTH responses in animals fed MBP or MBP peptides", "assay_type": "in vivo, Lewis rats", "conditions": "FIG. 15", "from_the_text": "Guinea pig MBP peptide 131-150 was ineffective in this case. Peptides were also fed with STI which prevents their breakdown by gastric juices and enhances their biological effect. DTH responses to whole MBP were suppressed by feeding MBP or any one of the MBP-peptides 21-40, or 71-90."}, "[1]": {"conditions": "MBP-fed modulators + MBP in upper well"}, "[2]": {"conditions": "MBP-fed modulators in upper well without MBP"}},
  "data": [
    {"molecule": "MBP: Guinea pig myelin basic protein purified from brain tissue (protein, UniProt P25188 1-167, looked up) Myelin basic protein: ASQKRPSQRHGSKYLATASTMDHARHGFLPRHRDTGILDSIGRFFGSDRAAPKRGSGKDSHHAARTTHYGSLPQKSQRSQDENPVVHFFKNIVTPRTPPPSQGKGRGLSLSRFSWGAEGQKPGFGYGGRADYKSKGFKGAHDAQGTLSKIFKLGGRDSRSGSPMARR", "values": [
      {"measurement": "Percent Suppression", "setting": "OVA line; [1]", "value": 51, "unit": "%"},
      {"measurement": "Δ cpm", "setting": "OVA line; [1]", "value": "30,974 ± 3,450 cpm"},
      {"measurement": "Percent Suppression", "setting": "OVA line; [2]", "value": "−5", "unit": "%"},
      {"measurement": "Δ cpm", "setting": "OVA line; [2]", "value": "65,868 ± 3,989 cpm"},
      {"measurement": "disease severity", "setting": "EAE", "value": "1.1±0.1"},
      {"measurement": "DTH responses to guinea pig MBP peptide 71-90", "setting": "DTH responses", "value": "suppressed"},
      {"measurement": "DTH responses to whole MBP", "setting": "DTH responses", "value": "suppressed"}
    ]}
  ]
}
